Laboratory results: IntAct's records for PubMed 14685257

B1: Polyadenylate-binding protein-interacting protein 2 (Homo sapiens), Q9BPZ3 (parent)
chain: MKDPSRSSTSPSIINEDVIINGHSHEDDNPFAEYMWMENEEEFNRQIEEELWEEEFIERCFQEMLEEEEEHEWFIPARDLPQTMDQIQDQFNDLVISDGSSLEDLVVKSNLNPNAKEFVPGVKYGNI

Variants of: B1
Conditions: with pabp1_human PABPC1, P11940
Chain of pabp1_human PABPC1, P11940 (P11940 whole entry): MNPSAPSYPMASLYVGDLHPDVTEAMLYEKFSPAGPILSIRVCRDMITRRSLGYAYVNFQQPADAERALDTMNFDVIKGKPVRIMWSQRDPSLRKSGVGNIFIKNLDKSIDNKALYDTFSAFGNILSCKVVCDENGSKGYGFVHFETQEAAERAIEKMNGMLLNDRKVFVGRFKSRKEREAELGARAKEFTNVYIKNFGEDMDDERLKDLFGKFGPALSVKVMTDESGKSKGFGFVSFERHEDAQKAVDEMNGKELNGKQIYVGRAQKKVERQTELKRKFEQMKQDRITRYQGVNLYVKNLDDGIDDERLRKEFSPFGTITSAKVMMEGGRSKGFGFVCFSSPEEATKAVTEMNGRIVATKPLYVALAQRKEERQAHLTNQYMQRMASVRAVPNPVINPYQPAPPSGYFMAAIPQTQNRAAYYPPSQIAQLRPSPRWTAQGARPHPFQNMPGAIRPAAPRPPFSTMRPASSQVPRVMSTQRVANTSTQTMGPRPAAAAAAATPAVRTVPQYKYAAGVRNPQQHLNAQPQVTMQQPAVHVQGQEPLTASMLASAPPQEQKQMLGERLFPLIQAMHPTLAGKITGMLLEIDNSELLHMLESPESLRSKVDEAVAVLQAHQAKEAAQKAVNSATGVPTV

effect of a mutation on the interaction	Variant
decreasing interaction	MKDPSRSSTSPSIINEDVIINGHSHEDDNPFAEYMWMENEEEFNRQIEEELWEEEFIERCFQEMLEEEEEHEWFIPARDLPQTMDQIQDQFNDLVISDGSSLEDLVVKSNLNPNAKEFVAGVKYGNI [P120A]
decreasing interaction	MKDPSRSSTSPSIINEDVIINGHSHEDDNPFAEYMWMENEEEFNRQIEEELWEEEFIERCFQEMLEEEEEHEWFIPARDLPQTMDQIQDQFNDLVISDGSSLEDLVVKSNLNANAKEFVPGVKYGNI [P113A]

More lines, now with the values behind:

Variant	effect of a mutation on the interaction
MKDPSRSSTSPSIINEDVIINGHSHEDDNPFAEYMWMENEEEFNRQIEEELWEEEFIERCFQEMLEEEEEHEWFIPARDLPQTMDQIQDQFNDLVISDGSSLEDLVVKSNLNPNLKEFVPGVKYGNI [A115L]	decreasing interaction
MKDPSRSSTSPSIINEDVIINGHSHEDDNPFAEYMWMENEEEFNRQIEEELWEEEFIERCFQEMLEEEEEHEWFIPARDLPQTMDQIQDQFNDLVISDGSSLEDLVVKSNLNPNAKAFVPGVKYGNI [E117A]	decreasing interaction
MKDPSRSSTSPSIINEDVIINGHSHEDDNPFAEYMWMENEEEFNRQIEEELWEEEFIERCFQEMLEEEEEHEWFIPARDLPQTMDQIQDQFNDLVISDGSSLEDLVVKSNLNPNAKEAVPGVKYGNI [F118A]	disrupting interaction
MKDPSRSSTSPSIINEDVIINGHSHEDDNPFAEYMWMENEEEFNRQIEEELWEEEFIERCFQEMLEEEEEHEWFIPARDLPQTMDQIQDQFNDLVISDGSSLEDLVVKSNLNPNAAEFVPGVKYGNI [K116A]	decreasing interaction
MKDPSRSSTSPSIINEDVIINGHSHEDDNPFAEYMWMENEEEFNRQIEEELWEEEFIERCFQEMLEEEEEHEWFIPARDLPQTMDQIQDQFNDLVISDGSSLEDLVVKSNANPNAKEFVPGVKYGNI [L111A]	decreasing interaction
